Test results published in patent US10800813 (Bicycle, dated 2020).
Like-named read-outs stand apart in the source and are kept apart here. Numbered stars: 1 amine (or outer) side, 2 acyl side, 3 side chain; on linkers, the order of the positions; unused ones are H or OH. Bridge positions count the residues as written; N and C are the ends. Square brackets hold non-standard residues; d marks the D form. Ends that are not written are not given here. Ind = L-indoline-2-carboxylic acid, O=C([C@@H]1Cc2ccccc2N1[*:1])[*:2]; Bip = N[C@@H](Cc1ccc(-c2ccccc2)cc1)C(=O)O; Tpi = O=C(O)[C@@H]1Cc2c([nH]c3ccccc23)CN1; Dip = N[C@H](C(=O)O)C(c1ccccc1)c1ccccc1; TBMB = c1c(C[*:1])cc(C[*:3])cc1C[*:2]; Hyp = O=C(O)[C@@H]1C[C@@H](O)CN1; Tic = O=C(O)[C@@H]1Cc2ccccc2CN1; 4FluoPro = 4-fluoroproline; Pip = O=C(O)[C@@H]1CCCCN1; Aze = O=C(O)[C@@H]1CCN1; Aib = CC(C)(N)C(=O)O

Assays:
Assay in all cases: enzyme inhibition assay
[1] = target: T1, Rat plasma Kallikrein (rat, UniProt P14272 391-638, limits assumed)
T1 construct: domain: catalytic domain; also called rPK; rat PK
T1 sequence (P14272 391-638 limits assumed): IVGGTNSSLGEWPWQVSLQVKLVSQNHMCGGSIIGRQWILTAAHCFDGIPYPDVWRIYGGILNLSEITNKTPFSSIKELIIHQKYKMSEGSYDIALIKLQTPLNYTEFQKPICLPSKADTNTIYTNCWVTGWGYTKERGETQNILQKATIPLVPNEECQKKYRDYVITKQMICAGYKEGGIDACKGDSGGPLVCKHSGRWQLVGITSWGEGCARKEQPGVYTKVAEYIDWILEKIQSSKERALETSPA

[2] = target: T2, human plasma Kallikrein (human, UniProt P03952 20-638, limits assumed)
T2 construct: also called hPK; human PK
T2 sequence (P03952 20-638 limits assumed): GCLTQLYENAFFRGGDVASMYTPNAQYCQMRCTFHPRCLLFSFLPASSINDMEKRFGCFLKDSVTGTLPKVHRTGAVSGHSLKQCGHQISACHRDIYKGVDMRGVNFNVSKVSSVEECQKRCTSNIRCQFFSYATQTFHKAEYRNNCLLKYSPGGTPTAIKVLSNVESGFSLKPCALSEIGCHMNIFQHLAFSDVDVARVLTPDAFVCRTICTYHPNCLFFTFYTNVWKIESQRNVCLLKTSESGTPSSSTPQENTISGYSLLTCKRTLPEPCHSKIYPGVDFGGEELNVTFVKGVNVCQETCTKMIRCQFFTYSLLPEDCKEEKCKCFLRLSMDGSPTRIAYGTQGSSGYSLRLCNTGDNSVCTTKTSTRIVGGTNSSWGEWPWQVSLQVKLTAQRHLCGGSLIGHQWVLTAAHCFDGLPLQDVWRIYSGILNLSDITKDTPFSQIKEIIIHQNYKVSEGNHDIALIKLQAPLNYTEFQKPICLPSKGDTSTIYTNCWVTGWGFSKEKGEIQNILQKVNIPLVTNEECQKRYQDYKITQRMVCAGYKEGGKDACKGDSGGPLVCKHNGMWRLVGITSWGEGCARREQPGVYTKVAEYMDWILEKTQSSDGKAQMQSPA

[3] = target: T2, human plasma Kallikrein; remark: listed apart in the source
[4] = target: T2, human plasma Kallikrein; remark: listed apart in the source
[5] = target: T2, human plasma Kallikrein; remark: listed apart in the source
[6] = target: T2, human plasma Kallikrein; remark: listed apart in the source

| Binder | IC50 [1] [nM] | IC50 [2] [nM] | Ki [5] [nM] | further results |
| --- | --- | --- | --- | --- |
| ACSWPARCVHQDLCA (linker 2-8-14 via TBMB; not fully specified (N-terminus, C-terminus)) [06-34-01] | 6.12 | 0.15 |  |  |
| ACRWPARCTHQDLCA (linker 2-8-14 via TBMB; not fully specified (N-terminus, C-terminus)) [06-34-02] | 1.09 | 0.16 |  |  |
| ACSWPARCTHQDLCA (linker 2-8-14 via TBMB; not fully specified (N-terminus, C-terminus)) [06-34-03 (01 + 02)] | 0.87 | 0.082 |  |  |
| ACRWPARCMHQDLCA (linker 2-8-14 via TBMB; not fully specified (N-terminus, C-terminus)) [06-34-04] | 0.56 | 0.075 |  |  |
| ACRWPARCLHQDLCA (linker 2-8-14 via TBMB; not fully specified (N-terminus, C-terminus)) [06-34-05] | 0.62 | 0.076 |  |  |
| ACSWPARCMHQDLCA (linker 2-8-14 via TBMB; not fully specified (N-terminus, C-terminus)) [06-34-17 (01 + 04)] | 0.44 | 0.073 |  |  |
| ACSWPAKCLHQDLCA (linker 2-8-14 via TBMB, also called WPAK peptide) [06-34-19 (01 + 05 + R/K)] | 4.67 |  |  |  |
| Ac-CPSAWRCLHQDLC-NH2 (linker 1-7-13 via TBMB; SMILES CC(=O)N[C@H]1CSCc2cc3cc(c2)CSC[C@H](NC(=O)[C@H](CCCNC(=N)N)NC(=O)[C@H](Cc2c[nH]c4ccccc24)NC(=O)[C@H](C)NC(=O)[C@H](CO)NC(=O)[C@@H]2CCCN2C1=O)C(=O)N[C@@H](CC(C)C)C(=O)N[C@@H](Cc1c[nH]cn1)C(=O)N[C@@H](CCC(N)=O)C(=O)N[C@@H](CC(=O)O)C(=O)N[C@@H](CC(C)C)C(=O)N[C@H](C(N)=O)CSC3) [Ac-(06-34-18) Scram 1] |  |  |  | Ki [3]: 1090 nM |
| Ac-CWASPRCLHQDLC-NH2 (linker 1-7-13 via TBMB; SMILES CC(=O)N[C@H]1CSCc2cc3cc(c2)CSC[C@H](NC(=O)[C@H](CCCNC(=N)N)NC(=O)[C@@H]2CCCN2C(=O)[C@H](CO)NC(=O)[C@H](C)NC(=O)[C@H](Cc2c[nH]c4ccccc24)NC1=O)C(=O)N[C@@H](CC(C)C)C(=O)N[C@@H](Cc1c[nH]cn1)C(=O)N[C@@H](CCC(N)=O)C(=O)N[C@@H](CC(=O)O)C(=O)N[C@@H](CC(C)C)C(=O)N[C@H](C(N)=O)CSC3) [Ac-(06-34-18) Scram 2] |  |  |  | Ki [3]: 11400 nM |
| Ac-CS[Bip]PARCLHQDLC-NH2 (linker 1-7-13 via TBMB; SMILES CC(=O)N[C@H]1CSCc2cc3cc(c2)CSC[C@H](NC(=O)[C@H](CCCNC(=N)N)NC(=O)[C@H](C)NC(=O)[C@@H]2CCCN2C(=O)[C@H](Cc2ccc(-c4ccccc4)cc2)NC(=O)[C@H](CO)NC1=O)C(=O)N[C@@H](CC(C)C)C(=O)N[C@@H](Cc1c[nH]cn1)C(=O)N[C@@H](CCC(N)=O)C(=O)N[C@@H](CC(=O)O)C(=O)N[C@@H](CC(C)C)C(=O)N[C@H](C(N)=O)CSC3) [Ac-(06-34-18) 4,4,BPal2] |  |  |  | Ki [4]: 464 nM |
| Ac-CS[Dip]PARCLHQDLC-NH2 (linker 1-7-13 via TBMB; SMILES CC(=O)N[C@H]1CSCc2cc3cc(c2)CSC[C@H](NC(=O)[C@H](CCCNC(=N)N)NC(=O)[C@H](C)NC(=O)[C@@H]2CCCN2C(=O)[C@H](C(c2ccccc2)c2ccccc2)NC(=O)[C@H](CO)NC1=O)C(=O)N[C@@H](CC(C)C)C(=O)N[C@@H](Cc1c[nH]cn1)C(=O)N[C@@H](CCC(N)=O)C(=O)N[C@@H](CC(=O)O)C(=O)N[C@@H](CC(C)C)C(=O)N[C@H](C(N)=O)CSC3) [Ac-(06-34-18) 3,3-DPA2] |  |  |  | Ki [4]: 1.5 nM |
| Ac-CS[Tpi]PARCLHQDLC-NH2 (linker 1-7-13 via TBMB; SMILES CC(=O)N[C@H]1CSCc2cc3cc(c2)CSC[C@H](NC(=O)[C@H](CCCNC(=N)N)NC(=O)[C@H](C)NC(=O)[C@@H]2CCCN2C(=O)[C@@H]2Cc4c([nH]c5ccccc45)CN2C(=O)[C@H](CO)NC1=O)C(=O)N[C@@H](CC(C)C)C(=O)N[C@@H](Cc1c[nH]cn1)C(=O)N[C@@H](CCC(N)=O)C(=O)N[C@@H](CC(=O)O)C(=O)N[C@@H](CC(C)C)C(=O)N[C@H](C(N)=O)CSC3) [Ac-(06-34-18) NorHar2] |  |  |  | Ki [4]: 24 nM |
| Ac-CSW[Hyp]ARCLHQDLC-NH2 (linker 1-7-13 via TBMB; SMILES CC(=O)N[C@H]1CSCc2cc3cc(c2)CSC[C@H](NC(=O)[C@H](CCCNC(=N)N)NC(=O)[C@H](C)NC(=O)[C@@H]2C[C@@H](O)CN2C(=O)[C@H](Cc2c[nH]c4ccccc24)NC(=O)[C@H](CO)NC1=O)C(=O)N[C@@H](CC(C)C)C(=O)N[C@@H](Cc1c[nH]cn1)C(=O)N[C@@H](CCC(N)=O)C(=O)N[C@@H](CC(=O)O)C(=O)N[C@@H](CC(C)C)C(=O)N[C@H](C(N)=O)CSC3) [Ac-(06-34-18) HyP3] |  |  | 0.41 |  |
| Ac-CSW[4FluoPro]ARCLHQDLC-NH2 (linker 1-7-13 via TBMB) [Ac-(06-34-18) 4FluoPro3] |  |  | 0.24 |  |
| Ac-CSW[Aze]ARCLHQDLC-NH2 (linker 1-7-13 via TBMB; SMILES CC(=O)N[C@H]1CSCc2cc3cc(c2)CSC[C@H](NC(=O)[C@H](CCCNC(=N)N)NC(=O)[C@H](C)NC(=O)[C@@H]2CCN2C(=O)[C@H](Cc2c[nH]c4ccccc24)NC(=O)[C@H](CO)NC1=O)C(=O)N[C@@H](CC(C)C)C(=O)N[C@@H](Cc1c[nH]cn1)C(=O)N[C@@H](CCC(N)=O)C(=O)N[C@@H](CC(=O)O)C(=O)N[C@@H](CC(C)C)C(=O)N[C@H](C(N)=O)CSC3, also called Ac-06-34-18(TMB)-NH2 Aze3) [Ac-(06-34-18) Aze3] |  |  | 0.06 | fold increase in affinity against wildtype [6]: 3 fold |
| Ac-CSW[Pip]ARCLHQDLC-NH2 (linker 1-7-13 via TBMB; SMILES CC(=O)N[C@H]1CSCc2cc3cc(c2)CSC[C@H](NC(=O)[C@H](CCCNC(=N)N)NC(=O)[C@H](C)NC(=O)[C@@H]2CCCCN2C(=O)[C@H](Cc2c[nH]c4ccccc24)NC(=O)[C@H](CO)NC1=O)C(=O)N[C@@H](CC(C)C)C(=O)N[C@@H](Cc1c[nH]cn1)C(=O)N[C@@H](CCC(N)=O)C(=O)N[C@@H](CC(=O)O)C(=O)N[C@@H](CC(C)C)C(=O)N[C@H](C(N)=O)CSC3) [Ac-(06-34-18) Pip3] |  |  | 0.26 |  |
| Ac-CSW[Tic]ARCLHQDLC-NH2 (linker 1-7-13 via TBMB; SMILES CC(=O)N[C@H]1CSCc2cc3cc(c2)CSC[C@H](NC(=O)[C@H](CCCNC(=N)N)NC(=O)[C@H](C)NC(=O)[C@@H]2Cc4ccccc4CN2C(=O)[C@H](Cc2c[nH]c4ccccc24)NC(=O)[C@H](CO)NC1=O)C(=O)N[C@@H](CC(C)C)C(=O)N[C@@H](Cc1c[nH]cn1)C(=O)N[C@@H](CCC(N)=O)C(=O)N[C@@H](CC(=O)O)C(=O)N[C@@H](CC(C)C)C(=O)N[C@H](C(N)=O)CSC3) [Ac-(06-34-18) Tic3] |  |  | 13.5 |  |
| Ac-CSW[Tpi]ARCLHQDLC-NH2 (linker 1-7-13 via TBMB; SMILES CC(=O)N[C@H]1CSCc2cc3cc(c2)CSC[C@H](NC(=O)[C@H](CCCNC(=N)N)NC(=O)[C@H](C)NC(=O)[C@@H]2Cc4c([nH]c5ccccc45)CN2C(=O)[C@H](Cc2c[nH]c4ccccc24)NC(=O)[C@H](CO)NC1=O)C(=O)N[C@@H](CC(C)C)C(=O)N[C@@H](Cc1c[nH]cn1)C(=O)N[C@@H](CCC(N)=O)C(=O)N[C@@H](CC(=O)O)C(=O)N[C@@H](CC(C)C)C(=O)N[C@H](C(N)=O)CSC3) [Ac-(06-34-18) NorHar3] |  |  | 2.99 |  |
| Ac-CSW[Ind]ARCLHQDLC-NH2 (linker 1-7-13 via TBMB; SMILES CC(=O)N[C@H]1CSCc2cc3cc(c2)CSC[C@H](NC(=O)[C@H](CCCNC(=N)N)NC(=O)[C@H](C)NC(=O)[C@@H]2Cc4ccccc4N2C(=O)[C@H](Cc2c[nH]c4ccccc24)NC(=O)[C@H](CO)NC1=O)C(=O)N[C@@H](CC(C)C)C(=O)N[C@@H](Cc1c[nH]cn1)C(=O)N[C@@H](CCC(N)=O)C(=O)N[C@@H](CC(=O)O)C(=O)N[C@@H](CC(C)C)C(=O)N[C@H](C(N)=O)CSC3) [Ac-(06-34-18) Ind3] |  |  | 1.35 |  |
| Ac-CSW[Aib]ARCLHQDLC-NH2 (linker 1-7-13 via TBMB; SMILES CC(=O)N[C@H]1CSCc2cc3cc(c2)CSC[C@H](NC(=O)[C@H](CCCNC(=N)N)NC(=O)[C@H](C)NC(=O)C(C)(C)NC(=O)[C@H](Cc2c[nH]c4ccccc24)NC(=O)[C@H](CO)NC1=O)C(=O)N[C@@H](CC(C)C)C(=O)N[C@@H](Cc1c[nH]cn1)C(=O)N[C@@H](CCC(N)=O)C(=O)N[C@@H](CC(=O)O)C(=O)N[C@@H](CC(C)C)C(=O)N[C@H](C(N)=O)CSC3) [Ac-(06-34-18) Aib3] |  |  | 1.2 |  |
